# Biological target: the molecule itself
# Test: crystal structure
protein,measurement,value
"SonM, borosin α-N-methyltransferase (wild type) (enzyme, Shewanella oneidensis MR-1) MGSLVCVGTGLQLAGQISVLSRSYIEHADIVFSLLPDGFSQRWLTKLNPNVINLQQFYAQNGEVKNRRDTYEQMVNAILDAVRAGKKTVCALYGHPGVFACVSHMAITRAKAEGFSAKMEPGISAEACLWADLGIDPGNSGHQSFEASQFMFFNHVPDPTTHLLLWQIAIAGEHTLTQFHTSSDRLQILVEQLNQWYPLDHEVVIYEAANLPIQAPRIERLPLANLPQAHLMPISTLLIPPAKKLEYNYAILAKLGIGPEDLG",stoichiometry N,2

# Source: article PMC10549244 (RSC Chemical Biology, 2023)
